Laboratory results: patent CN116472284A (UNIV CALIFORNIA, dated 2023)

What was measured:
[1] = molecular target: T1, SARS-CoV-2 spike receptor binding domain (RBD) (SARS-CoV-2, UniProt P0DTC2 328-533); experiment: SPR, biotinylated RBD on CAP chip
[2] = molecular target: T1, SARS-CoV-2 spike receptor binding …

B1: Nb6 (VHH)
VHH: QVQLVESGGGLVQAGGSLRLSCAASGIIFGRNAMGWYRQAPGKERELVAGITRRGSITYYADSVKGRFTISRDNAKNTVYLQMNSLKPEDTAVYYCAADPASPAPGDYWGQGTQVTVSS
notes: also called AeroNab6; NbCOV6
- Kd [1]: 41 nM
- EC50 [2]: 190 nM
